The values that follow come from the supplement of paper PMC9732359.

The nature of the data set: protein stability index of a GFP-peptide fusion (yeast GPS) (PSI 1-4); higher = more stable; sorted into four equal gates, so the index is relative within each strain. In a few lines:
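The protein stability index combines read frequencies across sorting gates, each weighted by its gate number and then summed. To obtain those frequencies, a pooled yeast library of GFP fusions to tiled 17-residue yeast protein peptides, on a plasmid also expressing Cherry, was grown to mid-log phase in leucine-free medium. The cells were sorted into four equal gates by GFP/Cherry ratio before plasmid amplification by PCR and Illumina sequencing.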

± gives the uncertainty stated by the source.

NGGNSVITLAEYEKRNH [SRP68]: the protein stability index worked out at 3.57 ± 0.12 (doa10∆), 3.28 ± 0.14 (pdr5∆), 3.44 ± 0.1 (san1∆) and 3.38 ± 0.12 (ubr1∆).

SAAATPSLNKTINGKVN [GAL11] came in with a protein stability index (doa10∆) of 2.9 ± 0.06, a protein stability index (pdr5∆) of 3.14 ± 0.041, a protein stability index (san1∆) of 2.81 ± 0.042 and a protein stability index (ubr1∆) of 3.01 ± 0.046.

Regarding AALERLKIFEGIPPPYD [RPL16B], the protein stability index is, setting by setting: (doa10∆) 1.62 ± 0.12; (pdr5∆) 2.52 ± 0.089; (san1∆) 1.34 ± 0.23; (ubr1∆) 1.27 ± 0.064.

With DTLCGIRKLTLRDTFIE [RPO21], the protein stability index reads like this: (doa10∆) 2.91 ± 0.085; (pdr5∆) 1.58 ± 0.058; (san1∆) 1.26 ± 0.1; (ubr1∆) 1.46 ± 0.056.

For the sequence SISSVVSEDLLDERGHE [RPN4], the protein stability index by setting is: (doa10∆) 3.11 ± 0.1; (pdr5∆) 2.99 ± 0.096; (san1∆) 2.85 ± 0.056; (ubr1∆) 2.79 ± 0.057.

AIFNNEFDSDDDDISDD [RPN4] registered a protein stability index (doa10∆) of 3.12 ± 0.1, a protein stability index (pdr5∆) of 2.16 ± 0.19 and a protein stability index (ubr1∆) of 3.19 ± 0.21.

As to QLPKQLWRNFCRKLSFS [ITC1], the protein stability index is, setting by setting: (doa10∆) 2.67 ± 0.059; (pdr5∆) 2.66 ± 0.05; (san1∆) 2.6 ± 0.039; (ubr1∆) 2.66 ± 0.034.

Turning to DTKLKAHELQSEDVSRD [YIL149C/MLP2], the protein stability index (doa10∆) turned out to be 2.77 ± 0.058, the protein stability index (pdr5∆) came to 2.95 ± 0.055, the protein stability index (san1∆) amounted to 3.03 ± 0.048 and the protein stability index (ubr1∆) turned out to be 2.86 ± 0.047.

On to SFTFASSKTSQPKPLFS [YOR098C/NUP1], for which the protein stability index is, setting by setting: (doa10∆) 2.37 ± 0.042; (pdr5∆) 2.44 ± 0.035; (san1∆) 2.27 ± 0.046; (ubr1∆) 2.69 ± 0.029.

SHFSPDIKAAVDDSMEL [ITC1]: the protein stability index reads like this: (doa10∆) 2.27 ± 0.096; (pdr5∆) 2.44 ± 0.12; (san1∆) 1.9 ± 0.15; (ubr1∆) 2.48 ± 0.079.

In the case of VSSAKFSGKYLKYLTKK [RPL22B], the protein stability index is 2.82 ± 0.25 (doa10∆), 2.52 ± 0.2 (pdr5∆), 2.59 ± 0.12 (san1∆) and 2.66 ± 0.18 (ubr1∆).

Turning to KKTCSSCGYPAAKTRSY [RPL37A], the protein stability index reads like this: (doa10∆) 2.25 ± 0.27; (pdr5∆) 3.17 ± 0.11; (san1∆) 2.69 ± 0.093; (ubr1∆) 3.27 ± 0.11.

On to LIMALLQFRPAPMYILD [SMC2], for which the protein stability index by setting is: (doa10∆) 2.47 ± 0.15; (pdr5∆) 1.12 ± 0.059; (san1∆) 1.32 ± 0.26; (ubr1∆) 1.06 ± 0.046.

In turn, TTLVTRREELQQRIREI [SMC3] gave a protein stability index (doa10∆) of 3.06 ± 0.2.

In the case of SKKYQLADWRIRPLSKP [RRP6], the protein stability index runs as follows: (doa10∆) 1.68 ± 0.048; (pdr5∆) 1.83 ± 0.048; (san1∆) 1.3 ± 0.088; (ubr1∆) 1.99 ± 0.049.

On to GGSTTNNTTTTSTKPSF [YOR098C/NUP1], for which the protein stability index is 2.79 ± 0.075 (doa10∆), 3.01 ± 0.074 (pdr5∆), 2.8 ± 0.072 (san1∆) and 2.75 ± 0.067 (ubr1∆).

For the sequence LGEIPNPMKKHKPNEGR [SIR4], the protein stability index turned out to be 2.58 ± 0.077 (doa10∆), 2.55 ± 0.086 (pdr5∆), 2.8 ± 0.062 (san1∆) and 2.88 ± 0.04 (ubr1∆).

Turning to LGKLQDVFNLLPNLGTP [RPN8], the protein stability index was 3.06 ± 0.12 (doa10∆), 3.29 ± 0.089 (pdr5∆), 2.43 ± 0.085 (san1∆) and 2.82 ± 0.081 (ubr1∆).

For PSKTPEVYMRYRNFMVN [SWI3], the protein stability index by setting is: (doa10∆) 1.8 ± 0.075; (pdr5∆) 1.81 ± 0.072; (san1∆) 1.82 ± 0.14; (ubr1∆) 1.81 ± 0.062.

The sequence ETAKKITFHPKIRARSI [SMC2] showed a protein stability index (doa10∆) of 2.91 ± 0.058, a protein stability index (pdr5∆) of 2.95 ± 0.06, a protein stability index (san1∆) of 2.92 ± 0.045 and a protein stability index (ubr1∆) of 2.85 ± 0.05.

In the case of PVKQSFIRKYINQKALR [GAL11], the protein stability index worked out at 1.61 ± 0.12 (doa10∆), 1.59 ± 0.07 (pdr5∆), 1.61 ± 0.099 (san1∆) and 1.77 ± 0.08 (ubr1∆).

With FKVARELKTEAAVLSNL [ITC1], the protein stability index is, setting by setting: (doa10∆) 2.83 ± 0.19; (pdr5∆) 2.66 ± 0.11; (san1∆) 2.9 ± 0.089; (ubr1∆) 2.86 ± 0.061.

Consider PITNKERSLAVKYINFG [RPC31], for which the protein stability index is 3.02 ± 0.14 (doa10∆), 3.11 ± 0.16 (pdr5∆), 2.65 ± 0.084 (san1∆) and 2.48 ± 0.18 (ubr1∆).

For the sequence STFQTRRRRLKKVEEEE [RPB4], the protein stability index stood at 3.33 ± 0.15 (doa10∆), 3.52 ± 0.12 (pdr5∆) and 3.36 ± 0.14 (ubr1∆).

Take KEEGLQQFNLHEILSEP [MED1]: the protein stability index came out at 2.97 ± 0.15 (doa10∆), 3.21 ± 0.15 (pdr5∆), 3.12 ± 0.12 (san1∆) and 2.62 ± 0.12 (ubr1∆).

As for VDSGEERNEQEREIMND [SWI3], the protein stability index amounted to 3.42 ± 0.069 (doa10∆), 3.26 ± 0.064 (pdr5∆), 3.02 ± 0.079 (san1∆) and 3.24 ± 0.11 (ubr1∆).

WTELCQREFKEIMEERN [NNF1]: the protein stability index came out at 2.98 ± 0.21 (doa10∆), 3.41 ± 0.16 (pdr5∆), 3.13 ± 0.072 (san1∆) and 3.2 ± 0.074 (ubr1∆).

NFLSVITNKHQEGLAKF [RPN2] returned a protein stability index (ubr1∆) of 3.17 ± 0.14.

Take MIQPPQQGQNMSEQQWR [ROX3]: the protein stability index (doa10∆) worked out at 2.15 ± 0.082, the protein stability index (pdr5∆) is 2.38 ± 0.06, the protein stability index (san1∆) worked out at 2.39 ± 0.093 and the protein stability index (ubr1∆) is 2.19 ± 0.033.

With VRCKDCGHRILLKARTK [RPC10], the protein stability index by setting is: (doa10∆) 2.55 ± 0.12; (pdr5∆) 2.64 ± 0.11; (san1∆) 2.56 ± 0.1; (ubr1∆) 2.87 ± 0.072.

Sequence YKVLKNNGLPECQVIAA [YCG1] yielded a protein stability index (doa10∆) of 1.42 ± 0.09, a protein stability index (pdr5∆) of 2.1 ± 0.14, a protein stability index (san1∆) of 1.35 ± 0.16 and a protein stability index (ubr1∆) of 1.95 ± 0.062.

Consider LLQLKYFSNKTSTGIIR [POP5], for which the protein stability index (doa10∆) was 2.46 ± 0.19, the protein stability index (pdr5∆) came out at 1.84 ± 0.13, the protein stability index (san1∆) is 1.35 ± 0.29 and the protein stability index (ubr1∆) was determined as 1.98 ± 0.062.

Regarding KTSEKSENHTESDAPPK [YOR098C/NUP1], the protein stability index was 2.52 ± 0.13 (doa10∆), 2.75 ± 0.13 (pdr5∆), 2.53 ± 0.15 (san1∆) and 2.28 ± 0.21 (ubr1∆).

Take NQEDLFELVHHFFQIDG [YML103C/NUP188]: the protein stability index runs as follows: (doa10∆) 2.97 ± 0.079; (pdr5∆) 3.04 ± 0.065; (san1∆) 2.85 ± 0.081; (ubr1∆) 2.68 ± 0.051.

NEIESRQLTSLGSKKEL [SNU114] displayed a protein stability index (doa10∆) of 3.17 ± 0.075, a protein stability index (pdr5∆) of 3.28 ± 0.078, a protein stability index (san1∆) of 3.31 ± 0.092 and a protein stability index (ubr1∆) of 3.37 ± 0.058.

Take EVVKSLYDRPLKPDLNK [NAS6]: the protein stability index is, setting by setting: (doa10∆) 3.18 ± 0.11; (pdr5∆) 3.38 ± 0.098; (san1∆) 2.85 ± 0.18; (ubr1∆) 3.42 ± 0.1.

With NKNQDAFEAELSNIPLL [ARP9], the protein stability index by setting is: (doa10∆) 3.12 ± 0.098; (pdr5∆) 3.23 ± 0.086; (san1∆) 3.01 ± 0.084; (ubr1∆) 3.31 ± 0.076.
